Assay results: patent US20240261333A1, “NOVEL TARGETS FOR ENHANCING ANTI-TUMOR IMMUNITY” (THE BROAD INSTITUTE, INC., priority 2021, published 2024)

T1: B3GNT2 (Homo sapiens, UniProt Q9NY97)
T1 construct: The respective ORFs of candidate genes [CD274 (NM_014143), MCL1 (NM_021960), JUNB (NM_002229), and B3GNT2 (NM_006577)] were synthesized; expressed in transfected cells; host or cells: A375 melanoma cells (lentiviral ORF overexpression)
T1 sequence (Q9NY97 1-397): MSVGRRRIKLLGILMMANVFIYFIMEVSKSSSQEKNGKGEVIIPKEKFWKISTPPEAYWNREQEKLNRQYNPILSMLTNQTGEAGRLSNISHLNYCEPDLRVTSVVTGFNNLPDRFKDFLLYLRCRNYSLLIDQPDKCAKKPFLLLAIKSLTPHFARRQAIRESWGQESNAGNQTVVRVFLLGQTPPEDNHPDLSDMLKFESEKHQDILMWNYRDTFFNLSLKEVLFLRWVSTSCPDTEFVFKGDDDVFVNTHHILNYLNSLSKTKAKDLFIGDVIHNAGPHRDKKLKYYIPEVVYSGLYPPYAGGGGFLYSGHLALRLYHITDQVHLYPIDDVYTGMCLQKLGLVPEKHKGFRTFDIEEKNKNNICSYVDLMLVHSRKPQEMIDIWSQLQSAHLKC


Biological target: T1, B3GNT2
Assay: Co-IP of FLAG-tagged B3GNT2 followed by mass spectrometry
Assay type: cell-based
Parameters: C-term IgG / C-term flag: unit not given here
Details: mass spectrometry count, unit not given; for C-term flag / N-term FLAG: Co-IP with FLAG antibody; for C-term flag / C-term IgG: C-terminally FLAG-tagged B3GNT2; for N-term FLAG / N-term IgG: N-terminally FLAG-tagged B3GNT2; for C-term IgG / N-term IgG: Co-IP with IgG control antibody
In short: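 FLAG-tagged B3GNT2 immunoprecipitated from cell lysate (HEPES, 1% Triton X-100, 150 mM NaCl) with anti-FLAG versus […], overnight at 4° C, then captured on Protein A/G magnetic beads for 4 h. Two biological replicates per condition. Peptides fractionated and analyzed by nano-LC on an Orbitrap Elite in data-dependent mode.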

| Molecule | C-term flag | N-term FLAG | C-term IgG | N-term IgG |
| --- | --- | --- | --- | --- |
| ARF4 (protein) GLTISSLFSRLFGKKQMRILMVGLDAAGKTTILYKLKLGEIVTTIPTIGFNVETVEYKNICFTVWDVGGQDRIRPLWKHYFQNTQGLIFVVDSNDRERIQEVADELQKMLLVDELRDAVLLLFANKQDLPNAMAISEMTDKLGLQSLRNRTWYVQATCATQGTGLYEGLDWLSNELSKR | 4 | 4 | 0 | 0 |
| CTHRC1 (protein) MWPPGRSITVKLREKTVSRKLEMNGPSAFQGLICGKYNGMCLQGPAGVPGRDGSPGANGIPGTPGIPGRDGFKGEKGECLRESFEESWTPNYKQCSWSSLNYGIDLGKIAECTFTKMRSNSALRVLFSGSLRLKCRNACCQRWYFTFNGAECSGPLPIEAIIYLDQGSPEMNSTINIHRTSSVEGLCEGIGAGLVDVAIWVGTCSDYPKGDASTGWNSVSRIIIEELPK | 2 | 0 | 0 | 0 |
| GANAB (protein) ITLAVDRSNFKTCEESSFCKRQRSIRPGLSPYRALLDSLQLGPDSLTVHLIHEVTKVLLVLELQGLQKNMTRFRIDELEPRRPRYRVPDVLVADPPIARLSVSGRDENSVELTMAEGPYKIILTARPFRLDLLEDRSLLLSVNARGLLEFEHQRAPRVSQGSKDPAEGDGAQPEETPRDGDKPEETQGKAEKDEPGAWEETFKTHSDSKPYGPMSVGLDFSLPGMEHVYGIPEHADNLRLKVTEGGEPYRLYNLDVFQYELYNPMALYGSVPVLLAHNPHRDLGIFWLNAAETWVDISSNTAGKTLFGKMMDYLQGSGETPQTDVRWMSETGIIDVFLLLGPSISDVFRQYASLTGTQALPPLFSLGYHQSRWNYRDEADVLEVDQGFDDHNLPCDVIWLDIEHADGKRYFTWDPSRFPQPRTMLERLASKRRKLVAIVDPHIKVDSGYRVHEELRNLGLYVKTRDGSDYEGWCWPGSAGYPDFTNPTMRAWWANMFSYDNYEGSAPNLFVWNDMNEPSVFNGPEVTMLKDAQHYGGWEHRDVHNIYGLYVHMATADGLRQRSGGMERPFVLARAFFAGSQRFGAVWTGDNTAEWDHLKISIPMCLSLGLVGLSFCGADVGGFFKNPEPELLVRWYQMGAYQPFFRAHAHLDTGRREPWLLPSQHNDIIRDALGQRYSLLPFWYTLLYQAHREGIPVMRPLWVQYPQDVTTFNIDDQYLLGDALLVHPVSDSGAHGVQVYLPGQGEVWYDIQSYQKHHGPQTLYLPVTLSSIPVFQRGGTIVPRWMRVRRSSECMKDDPITLFVALSPQGTAQGELFLDDGHTFNYQTRQEFLLRRFSFSGNTLVSSSADPEGHFETPIWIERVVIIGAGKPAAVVLQTKGSPESRLSFQHDPETSVLVLRKPGINVASDWSIHLR | 8 | 0 | 0 | 0 |
| PJA2 (protein) SQYTEKEPAAMDQESGKAVWPKPAGGYQTITGRRYGRRHAYVSFKPCMTRHERSLGRAGDDYEVLELDDVPKENSSGSSPLDQVDSSLPSEPIFEKSETEIPTCGSALNQTTESSQSFVAVHHSEEGRDTLGSSTNLHNHSEGEYIPGACSASSVQNGIALVHTDSYDPDGKHGEDNDHLQLSAEVVEGSRYQESLGNTVFELENREAEAYTGLSPPVPSFNCEVRDEFEELDSVPLVKSSAGDTEFVHQNSQEIQRSSQDEMVSTKQQNNTSQERQTEHSPEDAACGPGHICSEQNTNDREKNHGSSPEQVVRPKVRKLISSSQVDQETGFNRHEAKQRSVQRWREALEVEESGSDDLLIKCEEYDGEHDCMFLDPPYSRVITQRETENNQMTSESGATAGRQEVDNTFWNGCGDYYQLYDKDEDSSECSDGEWSASLPHRFSGTEKDQSSSDESWETLPGKDENEPELQSDSSGPEEENQELSLQEGEQTSLEEGEIPWLQYNEVNESSSDEGNEPANEFAQPAFMLDGNNNLEDDSSVSEDLDVDWSLFDGFADGLGVAEAISYVDPQFLTYMALEERLAQAMETALAHLESLAVDVEVANPPASKESIDGLPETLVLEDHTAIGQEQCCPICCSEYIKDDIATELPCHHFFHKPCVSIWLQKSGTCPVCRRHFPPAVIEASAAPSSEPDPDAPPSNDSIAEAP | 2 | 0 | 0 | 0 |
| CCT2 (protein) MDKILLSSGRDASLMVTNDGATILKNIGVDNPAAKVLVDMSRVQDDEVGDGTTSVTVLAAELLREAESLIAKKIHPQTIIAGWREATKAAREALLSSAVDHGSDEVKFRQDLMNIAGTTLSSKLLTHHKDHFTKLAVEAVLRLKGSGNLEAIHIIKKLGGSLADSYLDEGFLLDKKIGVNQPKRIENAKILIANTGMDTDKIKIFGSRVRVDSTAKVAEIEHAEKEKMKEKVERILKHGINCFINRQLIYNYPEQLFGAAGVMAIEHADFAGVERLALVTGGEIASTFDHPELVKLGSCKLIEEVMIGEDKLIHFSGVALGEACTIVLRGATQQILDEAERSLHDALCVLAQTVKDSRTVYGGGCSEMLMAHAVTQLANRTPGKEAVAMESYAKALRMLPTIIADNAGYDSADLVAQLRAAHSEGNTTAGLDMREGTIGDMAILGITESFQVKRQVLLSAAEAAEVILRVDNIIKAAPRKRVPDHHPC | 2 | 0 | 0 | 0 |
| RRP12 (protein) MGRSGKLPSGVSAKLKRWKKGHSSDSNPAICRHRQAARSRFFSRPSGRSDLTVDAVKLHNELQSGSLRLGKSEAPETPMEEEAELVLTEKSSGTFLSGLSDCTNVTFSKVQRFWESNSAAHKEICAVLAAVTEVIRSQGGKETETEYFAALVLSCLATLLRKQDLEAWGYPVTLQVYHGLLSFTVHPKPKIRKAAQHGVCSVLKGSEFMFEKAPAHHPAAISTAKFCIQEIEKSGGSKEATTTLHMLTLLKDLLPCFPEGLVKSCSETLLRVMTLSHVLVTACAMQAFHSLFHARPGLSTLSAELNAQIITALYDYVPSENDLQPLLAWLKVMEKAHINLVRLQWDLGLGHLPRFFGTAVTCLLSPHSQVLTAATQSLKEILKECVAPHMADIGSVTSSASGPAQSVAKMFRAVEEGLTYKFHAAWSSVLQLLCVFFEACGRQAHPVMRKCLQSLCDLRLSPHFPHTAALDQAVGAAVTSMGPEVVLQAVPLEIDGSEETLDFPRSWLLPVIRDHVQETRLGFFTTYFLPLANTLKSKAMDLAQAGSTVESKIYDTLQWQMWTLLPGFCTRPTDVAISFKGLARTLGMAISERPDLRVTVCQALRTLITKGCQAEADRAEVSRFAKNFLPILFNLYGQPVAAGDTPAPRRAVLETIRTYLTITDTQLVNSLLEKASEKVLDPASSDFTRLSVLDLVVALAPCADEAAISKLYSTIRPYLESKAHGVQKKAYRVLEEVCASPQGPGALFVQSHLEDLKKTLLDSLRSTSSPAKRPRLKCLLHIVRKLSAEHKEFITALIPEVILCTKEVSVGARKNAFALLVEMGHAFLRFGSNQEEALQCYLVLIYPGLVGAVTMVSCSILALTHLLFEFKGLMGTSTVEQLLENVCLLLASRTRDVVKSALGFIKVAVTVMDVAHLAKHVQLVMEAIGKLSDDMRRHFRMKLRNLFTKFIRKFGFELVKRLLPEEYHRVLVNIRKAEARAKRHRALSQAAVEEEEEEEEEEEPAQGKGDSIEEILADSEDEEDNEEEERSRGKEQRKLARQRSRAWLKEGGGDEPLNFLDPKVAQRVLATQPGPGRGRKKDHGFKVSADGRLIIREEADGNKMEEEEGAKGEDEEMADPMEDVIIRNKKHQKLKHQKEAEEEELEIPPQYQAGGSGIHRPVAKKAMPGAEYKAKKAKGDVKKKGRPDPYAYIPLNRSKLNRRKKMKLQGQFKGLVKAARRGSQVGHKNRRKDRRP | 2 | 0 | 0 | 0 |
| CSRP1 (protein) MPNWGGGKKCGVCQKTVYFAEEVQCEGNSFHKSCFLCMVCKKNLDSTTVAVHGEEIYCKSCYGKKYGPKGYGYGQGAGTLSTDKGESLGIKHEEAPGHRPTTNPNASKFAQKIGGSERCPRCSQAVYAAEKVIGAGKSWHKACFRCAKCGKGLESTTLADKDGEIYCKGCYAKNFGPKGFGFGQGAGALVHSE | 3 | 0 | 0 | 0 |
| STAU2 (protein) MANPKEKTAMCLVNELARFNRVQPQYKLLNERGPAHSKMFSVQLSLGEQTWESEGSSIKKAQQAVANKALTESTLPKPVQKPPKSNVNNNPGSITPTVELNGLAMKRGEPAIYRPLDPKPFPNYRANYNFRGMYNQRYHCPVPKIFYVQLTVGNNEFFGEGKTRQAARHNAAMKALQALQNEPIPERSPQNGESGKDVDDDKDANKSEISLVFEIALKRNMPVSFEVIKESGPPHMKSFVTRVSVGEFSAEGEGNSKKLSKKRAATTVLQELKKLPPLPVVEKPKLFFKKRPKTIVKAGPEYGQGMNPISRLAQIQQAKKEKEPDYVLLSERGMPRRREFVMQVKVGNEVATGTGPNKKIAKKNAAEAMLLQLGYKASTNLQDQLEKTGENKGWSGPKPGFPEPTNNTPKGILHLSPDVYQEMEASRHKVISGTTLGYLSPKDMNQPSSSFFSISPTSNSSATIARELLMNGTSSTAEAIGLKGSSPTPPCSPVQPSKQLEYLARIQGFQAALSALKQFSEQGLDPIDGAMNIEKGSLEKQAKHLREKADNNQAPPGSIAQDCKKSNSAV | 2 | 0 | 0 | 0 |
